Experimental data from patent publication US20240400698A1, “ANTI-CHEMOKIN LIKE RECEPTOR 1 ANTIBODIES AND THEIR THERAPEUTIC APPLICATIONS” (OSE IMMUNOTHERAPEUTICS, priority 2018, published 2024).

Columns and labels:
CMKLR1 receptor = biological target: T1, CMKLR1 receptor (Homo sapiens, UniProt Q99788); experiment: Competition with Chemerin in cAMP production by CMKLR1 receptor, CHO-K1 CMKLR1 Gi cells; format: cell-based; settings: FIG. 20A; antibody 1 μM to 1 nM, chemerin 2 nM
T1 construct: host or cells: CHO-K1
T1 sequence (Q99788 1-373): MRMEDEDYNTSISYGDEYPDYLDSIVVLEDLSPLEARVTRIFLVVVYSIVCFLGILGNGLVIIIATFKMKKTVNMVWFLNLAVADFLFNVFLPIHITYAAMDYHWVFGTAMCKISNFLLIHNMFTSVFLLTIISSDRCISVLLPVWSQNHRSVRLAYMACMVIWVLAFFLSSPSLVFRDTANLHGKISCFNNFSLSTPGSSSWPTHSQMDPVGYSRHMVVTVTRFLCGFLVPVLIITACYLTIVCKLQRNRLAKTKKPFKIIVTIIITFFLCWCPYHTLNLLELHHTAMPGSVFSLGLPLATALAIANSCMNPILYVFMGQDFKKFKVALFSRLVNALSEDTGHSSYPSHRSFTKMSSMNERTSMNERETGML
Experimental: The day before the experiment CHO-K1 CMKLR1 Gi cells (Discover'X ref 95-0080C2) were plated in pre-warmed cell reagent then plated in a 96-well plate at 100 μl/well of cells as (Discover'X ref 15-103) and incubated 24 hours at 37° C., in a 5% CO2 humidified incubator for 24 hours.
For the detection CAMP, antibody reagent and cAMP working detection solution was added to the plate for 1 hour at room temperature, then CAMP solution A was added, and cells incubated 3 hours at room temperature in the dark. Bioluminescence was read with a plate reader with 0.5 s integration.

CT26 cells = experiment: CT26 colon carcinoma model; format: in vivo, mice; settings: FIG. 9A-C, 20 μg/injection i.p. for 3 weeks
Experimental: (§1) FIG. 9. […] Two mice models were studied, and animals received isotype control antibody (3G8) (x) or anti-CMKLR1 (2G1) ( ) at 20 μg/injection intraperitoneally for 3 weeks. A-C. Results in the CT26 colon carcinoma model comparing single treatment with p84 (A) and 2G1 (B) with combined therapy with both antibodies (C). D: Results in the MC38 colon carcinoma model.
(§2) 8-week old C57bl/6J male mice were anesthetized with 3% of isoflurane. Mice were shaved on the flank and MC38 cells (0.5·10^6 cells/mouse) cell lines were injected subcutaneously with an insulinic syringe (30 Gauges) in 50 μL of PBS. Another model was used, in which 8-week old Balb/c male mice were anesthetized with 3% of isoflurane. Mice were shaved on the flank and CT26 cells (1·10^6 cells/mouse) were injected subcutaneously with an insulinic syringe (30 Gauges) in 50 μL of PBS.
(§3) The agonistic anti-CMKLR1 antibody (2G1) or an anti-SIRPa antibody (p84-anti-mouse SIRPa from Merck Millipore) (SIRPa is a new checkpoint inhibitor) were injected once a week (20 μg/injection) intraperitoneally for 3 weeks starting at d4 after tumor inoculation alone or combined.

MC38 cells = experiment: MC38 colon carcinoma model; format: in vivo, mice; settings: FIG. 9D, 20 μg/injection i.p. for 3 weeks, vs isotype control
Experimental: as §1, §2, §3

[1] = biological target: T2, CMKLR1 EL3 loop (SEQ ID No: 18) (Homo sapiens, UniProt Q99788); experiment: ELISA binding on CMKLR1 peptide; settings: OD at 450 nm, FIG. 12, vs isotype control
T2 sequence (Q99788 275-307 limits assumed): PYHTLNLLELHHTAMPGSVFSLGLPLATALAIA
Experimental: FIG. 12. Binding analysis of the anti-CMKLR1 antibody on a CMKLR1 peptide by ELISA. The binding of the 2G1 antibody ( ) on the CMKLR1 EL3 loop (SEQ ID No: 18) was compared to the isotype control antibody (3G8) (x) by measuring the OD at 450 nm by ELISA.
CMKLR1 peptide (273NH2-[…]-COOH305) (SEQ ID No: 18) (5 μg/ml) was coated in borate buffer overnight. Saturation was performed with PBS-Tween 0.1%-Gelatin 0.25% for 2 hours at 37° C. Then, 2G1 or hIgG1 antibodies were added at different concentrations for 2 hours at 37° C. […] The colorimetric reaction was read with TECAN.

[2] = system: mice, peritonitis induced by Zymosan A; experiment: Zymosan A peritonitis model (sepsis); format: in vivo; settings: preventive injection, vs isotype control
Experimental: FIG. 7. […] Preventive injection of anti-CMKLR1 was performed before Zymosan A injection (1 mg per mouse in 1 mL): RvE1 (1 μg per mouse) (•), 2G1 antibody (10 μg per mouse) ( ) or isotype control antibody (x). A. PMN numbered during the first 50 hours after Zymosan A injection. B. Macrophages numbered during the first 50 hours after Zymosan A injection. C. Resolution index.
Common peritonitis is induced by intraperitoneal injection of Zymosan A® (1 mg per mouse in 1 mL). Preventive injection of anti-CMKLR1 was performed 5 minutes before Zymosan A injection: RvE1 (1 μg per mouse), 2G1 antibody (10 μg per mouse). Murine peritoneal polymorphonuclear neutrophil (PMN) and macrophages were collected at 2-4-8-16-24 and 48 h after Zymosan A injection and numbered by flow cytometry analysis to determinate the resolution index (Bannenberg et al., 2005).

[3] = system: C57BI/6 male mice, colitis induced by TNBS; experiment: Acute inflammatory colitis model induced by TNBS; format: in vivo; settings: FIG. 3, 2G1 10 μg, RvE1 1 μg per mouse i.p.
Experimental: FIG. 3. […] Mice received 200 μL of the haptenating agent TNBS at 5% in 50% ethanol on day 0 and then were injected with isotype control hIgG1 (10 μg per mouse) (x), RvE1 (1 μg per mouse) daily (•), or 2G1 antibody (10 μg per mouse) three times ( ) for 5 days, or non-treated (wild type animals) (▾). Mice were sacrificed colon length was measured in each condition.
Colitis was induced in 8-10 weeks-old-C57BI/6 male mice by intrarectal injection of 200 μL of the haptenating agent TNBS at 5% in 50% ethanol on day 0. Treatments were injected intra-peritoneally; RvE1 (1 μg per mouse) daily for three days, or 2G1 antibody (10 μg per mouse) twice for 3 days. Colitis follow-up consisting of body weight and stool score (0: normal stool; 4: blood in stool) parameters were performed daily (data not represented). When mice are euthanized, colon length representing the pathology severity was measured.

B1: 2G1: chimeric anti-CMKLR1 antibody, murine variable regions (SEQ ID No: 10 and 17), human IgG1 constant regions; VH-CDR3 variant LI (antibody, V domains shown)
VH: METDTLLLWVLLLWVPGSTGDEVQLVASGGGLVQPGGSLKLSCAASGFTFSSYGMSWVRQTPDRRLELVATINRYGGSTYYPDSVKGRFTISRDNAKNTLYLQMSSLKSEDTAMYYCPRLIYYGNEGDSWGQGTTLTVSS
VL: METDTLLLWVLLLWVPGSTGDQIVLTQSPAIMSASPGEKVTMTCSASSSVSFMHWYQQKSGTSPKRWIYDTTKLTSGVPARFSGSGSGTFYSLTISSMEAEDAATYYCQQWNSKPPLTFGPGTKLELKR
modifications: human IgG1 constant regions
notes: VH-CDR3 variant LI
CMKLR1 receptor
  reversal of Chemerin-induced inhibition of forskolin-dependent cAMP production: could not revert this inhibition of production
CT26 cells
  tumor development / tumor growth: did not demonstrate a clinical effect on the tumor development
MC38 cells
  tumor growth: did show an efficacy in the inhibition of the tumor growth
[1]
  binding to the polypeptide forming the loop EL3 of CMKLR1: able to bind the polypeptide forming the loop EL3 of CMKLR1
[2]; FIG. 7A
  PMNs number: slightly less
[2]; FIG. 7B
  macrophages number: slightly less
[2]; FIG. 7C
  resolution index: better resolution index
[3]
  colon length: the same as normal animal (wt)
